Assay [1] deals with T1, linear 15mer peptide derived from human CD3ε residues 2-16 (wild type of the substitution library, Set 1) (human).
T1 construct: Probed as a saturation mutagenesis library on a peptide array
T1 peptide: DGNEEMGGITQTPYK
Put plainly: 15mer peptide array ELISA.

In assay [2] the target is T2, linear 15mer peptide derived from cynomolgus CD3ε residues 2-16 (wild type of the substitution library, Set 2) (cynomolgus).
T2 construct: Probed as a saturation mutagenesis library on a peptide array
T2 peptide: DGNEEMGSITQTPYQ
The assay is described as follows: 15mer peptide array ELISA. In general terms: In an ELISA, binding on a coated surface is turned into a signal by an enzyme label.

Assay [3] deals with T3, linear 15mer peptides derived from human CD3ε residues 5-20 (Set 3) (human).
T3 construct: also called peptides spanning residues 5-20
T3 peptide: EEMGGITQTPYKVSIS
Put plainly: peptide array ELISA, Set 3. Here is the method: (§1) The binding of the antibodies to each of the synthesized peptides was tested by ELISA. The peptide arrays were incubated with primary antibody solution (overnight at 4° C.). After washing, the peptide arrays were incubated with a 1/1000 dilution of an antibody peroxidase conjugate (SBA, cat.nr.2010-05) for one hour at 25° C. After washing, the peroxidase substrate 2,2′-azino-di-3-ethylbenzthiazoline sulfonate (ABTS) and 2 μl/ml of 3% H₂O₂ were added. After one hour, the color development was measured. The color development was quantified with a charge coupled device (CCD)—camera and an image processing system.

Assay [4] deals with T4, linear 15mer peptides derived from cynomolgus CD3ε residues 5-20 (Set 4) (cynomolgus).
T4 construct: also called peptides spanning residues 5-20
T4 peptide: EEMGSITQTPYQVSIS
Put plainly: peptide array ELISA, Set 4. The procedure:
as §1

The target in assay [5] is T5, human CD3ε expressed on the cell surface of T cells (Jurkat cells; human CD8+ T cells) (human, UniProt P07766 23-207). Put plainly: cell-based or functional assay.
The target in assay [6] is T5, human CD3ε expressed on the cell …. The assay is described as follows: cell-based ELISA on Jurkat cells. The procedure:
(§2) Jurkat cells (clone E6-1), a human T cell line, were seeded at 300,000 cells/well in round bottom 96-well plates in 100 μl phosphate-buffered saline (PBS) containing 10% FBS. Five-fold serial dilutions of anti-CD3 rabbit monoclonal antibodies ranging from 90 nM to 0.0058 nM were added to the plates in 100 μl PBS containing 10% FBS. […] This secondary antibody was linked to the enzyme horseradish peroxidase (HRP). HRP activity was measured by addition of TMB substrate (3,3′,5,5′-tetramethylbenzidine, KPL, Cat. No. 53-00-00), which in a colorimetric reaction is processed by the HRP. The color intensity of the processed substrate is directly proportional to the amount of anti-CD3 antibody bound to Jurkat cells. To quantify color intensity, light absorbance (optical density) at the respective wave length was measured using a microtiter plate reader (Infinity reader M200 Pro, Tecan).
(§3) To correct for unspecific binding of the antibodies to unknown components presented on the cell surface of Jurkat cells, a CD3ε deficient derivative of the Jurkat T cell line (J.RT3-T3.5) was used. Binding of the monoclonal antibodies to this cell line was measured as described above for the Jurkat cells. For quantification of specific binding to Jurkat cells, the optical density for binding to the negative control was subtracted from the optical density for binding to Jurkat cells. Data were analyzed using a four-parameter logistic curve fit using the Softmax Data Analysis Software (Molecular Devices), and the molar concentration of anti-CD3 antibody required to reach 50% binding (EC₅₀, mid-OD of the standard curve) was derived from dose response curves.

Assay [7] concerns the target T6, cynomolgus monkey CD3ε expressed on the surface of HSC-F T cells (cynomolgus monkey, UniProt Q95LI5 22-198).
T6 construct: whole, on cells; also called cyno HSC-F T cells
Put plainly: cell-based ELISA on cyno HSC-F T cells.

Assay [8] has as its target T7, cynomolgus monkey heterodimeric single-chain CD3εγ extracellular domain (cynomolgus monkey, UniProt Q95LI5 22-117; Q95LI7 23-113). The assay is described as follows: SPR; ratio of the KDs for cyno and human single-chain CD3εγ.
For assay [9], the target named is T7, cynomolgus monkey heterodimeric …. The assay is described as follows: SPR, rabbit IgG captured, cyno single-chain CD3εγ ECD injected.
Assay [10] has the same target. The description is as above. This is another data set of the same source.
Assay [11] deals with T8, human heterodimeric single-chain CD3εγ extracellular domain (human, UniProt P07766 23-126; P09693 23-116).
T8 construct: extracellular domain; Produced in-house; also called scCD3γε; human CD3ge
Put plainly: SPR, rabbit IgG captured, human single-chain CD3εγ ECD injected. Here is the method: (§4) Binding affinities of monoclonal rabbit anti-CD3 antibodies were measured by surface plasmon resonance (SPR) using a MASS-1 SPR instrument (Sierra Sensors). […] Rabbit monoclonal antibodies were captured by the immobilized anti-rabbit IgG antibody. Two-fold serial dilutions of human heterodimeric single-chain CD3εγ extracellular domain (produced in-house) ranging from 90 to 2.81 nM were injected into the flow cells for 3 min and dissociation of the protein from the IgG captured on the sensor chip was allowed to proceed for 5 min. After each injection cycle, surfaces were regenerated with two injections of 10 mM glycine-HCl. The apparent dissociation (kd) and association (ka) rate constants and the apparent dissociation equilibrium constant (KD) were calculated with the MASS-1 analysis software (Analyzer, Sierra Sensors) using one-to-one Langmuir binding model.
Background: SPR reads the build-up and loss of mass on a sensor chip optically.

Assay [12] deals with T8, human heterodimeric single-chain CD3εγ …. The assay is described as above. Here is the method: as §4
The source holds these as a separate data set.

Assay [13] addresses T5, human CD3ε expressed on the cell …. The assay is described as follows: cell-based ELISA on Jurkat cells, CD3ε-deficient Jurkat subtracted. The procedure:
as §2, §3

For assay [14] the target is unchanged. Put plainly: cell-based or functional assay. The source holds these as a separate data set.

Changes are numbered by the printed parent chain. Like-named read-outs stand apart in the source and are kept apart here.

T7 sequence (Q95LI7 other isoform, or with tags, fused parts or gaps): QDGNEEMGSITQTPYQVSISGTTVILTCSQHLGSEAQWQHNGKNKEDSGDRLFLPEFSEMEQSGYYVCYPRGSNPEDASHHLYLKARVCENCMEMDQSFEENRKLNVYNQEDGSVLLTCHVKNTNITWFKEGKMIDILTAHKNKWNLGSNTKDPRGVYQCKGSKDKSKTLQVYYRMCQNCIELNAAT
T6 sequence (Q95LI5 22-198): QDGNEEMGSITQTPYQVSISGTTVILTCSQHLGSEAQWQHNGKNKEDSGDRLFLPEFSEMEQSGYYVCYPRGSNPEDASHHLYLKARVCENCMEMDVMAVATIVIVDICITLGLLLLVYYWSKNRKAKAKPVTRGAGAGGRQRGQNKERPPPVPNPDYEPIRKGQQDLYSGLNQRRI

B1: clone-02 (antibody, V domains shown)
VH: QSLEESGGRLVTPGTPLTLTCTVSGFPLSAYAMIWVRQAPGKGLEWIGMIIRSGTVYYANWAKGRFTISKTSTTVDLKITSPTTEDTATYFCARRHYNADGYPIGIGDLWGPGTLVTVSS
VL: AQVLTQTPSSVSAVVGGTVTISCQSSESVYSNNRLSWFQQKPGQPPKLLIYSASTLASGVPSRFKGSGSGTQFTLTITDLECDDAATYFCQGEFSCSSVDCFSFGGGTEVVVKG
notes: Recombinant rabbit IgG; also called Clone 2
As to B1, the binding result is listed as “binds” in [1], “binds” in assay [2], “no binding” in [3] and “no binding” in assay [4]. Further, the “Fold increase in CD69 expression [MFI normalized to neg. ctrl.], 1.25 µg/ml anti-CD3 IgG” value in assay [5] was 3.3 fold. In addition, the “Fold increase in CD69 expression [MFI normalized to neg. ctrl.], 5 µg/ml anti-CD3 IgG” value in [5] is 4.6 fold. In addition, the “Fold increase in CD69 expression [MFI normalized to neg. ctrl.], 20 µg/ml anti-CD3 IgG” value in assay [5] came to 7.4 fold. The EC50 in assay [6] worked out at 0.71 nM; in [7], 3.82 nM; in assay [13], 0.71 nM. The “KD (human)/KD (cyno)” value in assay [8] was determined as 13. Also, the Kd in [9] came out at 3.86 nM; in [10] it was 3.86 nM; in [11] it was 0.304 nM; in assay [12], 0.304 nM. Besides, the figures for the koff in assay [10] and in assay [12] were 0.00258 s⁻¹ and 0.000264 s⁻¹, respectively. The kon was 668000 M⁻¹ s⁻¹ in assay [10] and 869000 M⁻¹ s⁻¹ in assay [12].

B2: anti-IL5R×CD3ε scDb containing Numab's anti-CD3 domain (humanized clone 6), Example 9 (bispecific antibody)
chain: DIQMTQSPSSLSASVGDRVTITCQASQNIYSNLAWYQQKPGKAPKLLIYRASTLASGVPSRFSGSGSGTDFTLTISSLQPEDFATYYCQSNYGINYYGAAFGQGTKLTVLGGGGGSEVQLVESGGGLVQPGGSLRLSCAASGFPLSSYAMIWVRQAPGKGLEWIGMILRAGNIYYASWVKGRFTISRDNSKNTVYLQMNSLRAEDTAVYYCARRHYNREGYPIGIGDLWGQGTLVTVSSGGGGSGGGGSGGGGSGGGGSDIQMTQSPSSLSASVGDRVTITCQSSESVYNNKRLSWYQQKPGKAPKLLIYTASSLASGVPSRFSGSGSGTDFTLTISSLQPEDFATYYCQGEFTCSNADCFTFGQGTKLTVLGGGGGSEVQLVESGGGLVQPGGSLRLSCAASGFSLSSYDMTWVRQAPGKGLEWIGIIYVSGSAYYASWAKGRFTISRDNSKNTVYLQMNSLRAEDTAVYYCARINYGLDLWGQGTLVTVSS
In the case of B2, the “EC50 in the dose-response curve of specific lysis of CHO-IL5R target cells at 64 hours” value in assay [14] was determined as 0.31 nM.

B3: clone-06 (antibody, V domains shown)
VH: QSVEESGGRLVTPGTPLTLTCTVSGFPLSSYAMIWVRQAPGKGLEWIGMILRAGNIYYASWVKGRVTISKTSTTVDLKITSPTTEDTATYFCARRHYNREGYPIGIGDLWGPGTLVTVSS
VL: AQVLTQTPSSVSAAVGGTVTISCQSSESVYNNKRLSWFQQKPGQPPKQLIYTASSLASGVPSRFKGSGSGTQFTLTISDLECDDAATYYCQGEFTCSNADCFTFGGGTEVVVKG
notes: Recombinant rabbit IgG; also called Clone 6
As to B3, the binding result was “binds” in assay [1], “binds” in assay [2], “no binding” in assay [3] and “no binding” in assay [4]. Also, the “Fold increase in CD69 expression [MFI normalized to neg. ctrl.], 1.25 µg/ml anti-CD3 IgG” value in assay [5] worked out at 2.7 fold. In addition, the “Fold increase in CD69 expression [MFI normalized to neg. ctrl.], 5 µg/ml anti-CD3 IgG” value in [5] came out at 5.1 fold. Further, the “Fold increase in CD69 expression [MFI normalized to neg. ctrl.], 20 µg/ml anti-CD3 IgG” value in assay [5] amounted to 5.3 fold. Moreover, the results for the EC50 in [6], in assay [7] and in assay [13] were 0.67 nM, 1.6 nM and 0.67 nM, respectively. Besides, in assay [8], the “KD (human)/KD (cyno)” value stood at 4. For the same molecule, the Kd in assay [9] is 8.95 nM; in [10] it was 8.95 nM; in assay [11], 2.23 nM; in assay [12], 2.23 nM. In addition, the figures for the koff in assay [10] and in [12] were 0.00397 s⁻¹ and 0.00138 s⁻¹, respectively. The figures for the on-rate (kon) in assay [10] and in assay [12] were 444000 M⁻¹ s⁻¹ and 618000 M⁻¹ s⁻¹, respectively.

B4: clone-03 (antibody, V domains shown)
VH: QSLEESGGRLVTPGTPLTLTCTVSGFPLNRYAMLWVRQAPGKGLEWIGLITRADKKYYASWAKGRFTISKTSTTVDLEITGPTTEDTATYFCARRHYNTDGYPIAIGDLWGPGTLVTVSS
VL: B3 VL with S26N, S28N, V29I, N31S, K33N, K47N, T52S, T95N, S97N, N98S
notes: Recombinant rabbit IgG; also called Clone 3
As for B4, the binding result in assay [1] is “binds”; in [2] it was “binds”; in assay [3] it was “no binding”; in assay [4] it was “no binding”. Besides, the “Fold increase in CD69 expression [MFI normalized to neg. ctrl.], 1.25 µg/ml anti-CD3 IgG” value in assay [5] came to 2.6 fold. Also, the “Fold increase in CD69 expression [MFI normalized to neg. ctrl.], 5 µg/ml anti-CD3 IgG” value in assay [5] is 4.6 fold. The “Fold increase in CD69 expression [MFI normalized to neg. ctrl.], 20 µg/ml anti-CD3 IgG” value in assay [5] came out at 6.6 fold. The EC50 in assay [6] is 1.45 nM; in [7], 23.9 nM; in [13] it was 1.45 nM. Besides, in assay [8], the “KD (human)/KD (cyno)” value is 13. In addition, the Kd in assay [9] was 11.5 nM; in assay [10] it was 11.5 nM; in assay [11], 0.905 nM; in assay [12], 0.905 nM. Further, the koff in assay [10] came out at 0.00403 s⁻¹; in assay [12], 0.000498 s⁻¹. In addition, the kon in assay [10] was 350000 M⁻¹ s⁻¹; in [12] it was 551000 M⁻¹ s⁻¹.

A word on the EC50: it is the concentration that produces a half-maximal response. In general, Kd refers to the concentration at which binding is half-saturated. Usually koff stands for the first-order rate constant of dissociation. What is called kon is the rate constant with which the complex forms.

The values above are taken from patent US20180244777A1 (NUMAB THERAPEUTICS, published 2018).
